Residue numbers refer to the chain shown, from its start.
Assays:
B7-1 on Raji cells = B7-1 on Raji cells (UniProt P33681); assay: cell-based or functional assay; set-up: unit not given beside the values
B7-2 on Raji cells = B7-2 on Raji cells (UniProt P42081); assay: cell-based or functional assay; set-up: unit not given beside the values
[1] = molecular target: T1, B7-1 coated on the plate of the stability RIA (human, UniProt P33681 35-242); assay: stability RIA: 35S-labelled in vitro translated CTLA-4 on a plate coated with B7-1, non-reducing conditions
T1 construct: also called human B7-1 (RnD Systems, 140-B1)
T1 sequence (looked up): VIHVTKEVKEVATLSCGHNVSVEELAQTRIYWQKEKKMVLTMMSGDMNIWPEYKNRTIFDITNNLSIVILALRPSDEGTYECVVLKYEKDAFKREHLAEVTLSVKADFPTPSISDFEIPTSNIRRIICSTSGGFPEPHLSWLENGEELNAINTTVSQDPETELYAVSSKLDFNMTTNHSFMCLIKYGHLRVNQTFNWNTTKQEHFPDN
Protocol: (§1) CTLA-4 variants were screened for stability using the primary stability RIA (radio immunoassay) as described in Jermutus et al., (2001). In brief for each variant a linear DNA template was amplified, transcribed, the mRNA purified on G25 Sephadex® columns and quantified. For each variant in vitro translations in the presence of ³⁵S-labelled methionine were set up in duplicate at 30° C. for 30 min, one in non-reducing conditions and one in 10 mM DTT (dithiothreitol). The translations were stopped with PBS with 0.050 Tween 20, with DTT at the same concentration as the translations. The translation mixture was incubated on a plate coated with B7-1 for 1 hour at room temperature. Plates were washed three times in PBS with 0.05% Tween 20® and three times in PBS. The remaining radioactivity was eluted with 0.1 M triethylamine and quantified by liquid scintillation counting. A measure of the variants' stability was calculated as the percentage residual binding i.e. binding signal in presence of DTT, divided by binding signal in absence of DTT, multiplied by 100.

[2] = molecular target: T1, B7-1 coated on the plate of the …; assay: stability RIA: 35S-labelled in vitro translated CTLA-4 on a plate coated with B7-1, 10 mM DTT against no DTT
Protocol: as §1

B7-2 on Raji cells, sequence (P42081 24-329 limits assumed): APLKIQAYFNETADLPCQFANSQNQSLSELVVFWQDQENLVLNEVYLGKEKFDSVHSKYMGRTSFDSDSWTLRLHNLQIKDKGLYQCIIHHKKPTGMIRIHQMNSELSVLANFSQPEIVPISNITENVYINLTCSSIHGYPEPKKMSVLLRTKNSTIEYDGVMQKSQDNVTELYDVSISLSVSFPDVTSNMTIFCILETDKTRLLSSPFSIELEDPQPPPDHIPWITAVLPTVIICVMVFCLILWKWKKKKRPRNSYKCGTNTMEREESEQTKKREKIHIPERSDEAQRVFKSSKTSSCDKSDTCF

Work on “CTLA-4 human wild-type (SEQ ID NO: 8), CTLA-4-Fc form (from UniProt P16410 37-161) (Fc fusion; in M (unit assumed))” yielded an EC50, inhibition of IL-2 production in the Jurkat and Raji dual cell assay (B7-1 and B7-2 both free) (B7-1 on Raji cells) of 1.27e-08 and an EC50, inhibition of IL-2 production in the Jurkat and Raji dual cell assay (B7-1 and B7-2 both free) (B7-2 on Raji cells) of 1.27e-08.

B1: CTLA-4 variant Var 3 (SEQ ID 7), monomeric form with serine at position 121, translated in vitro (receptor)
chain: AMHVAQPAVVLASSRGIASFVCEYAPPGKATEVRVTVLRQADSQVTEVWAATYMMGNESTFPDDSICTGTFSGNQVNLTIRGLRAMDTGLYICEVELMYPPPYYLGIGNGTQIYVIDPEPSPDSD
modifications: 35S-labelled methionine
In the case of B1, the “Signal DTT- (RIA signal after non-reducing conditions, signal over background)” value [1] is reported as 13.2 signal over background and the “% Residual Binding (signal in 10 mM DTT divided by signal without DTT, times 100)” value [2] is reported as 75%.

B2: CTLA-4 variant Var 2 (SEQ ID 6), monomeric form with serine at position 121, translated in vitro (receptor)
chain: B1 chain with S43G, T46S, W49C, P62L
modifications: 35S-labelled methionine
In the case of B2, the “Signal DTT- (RIA signal after non-reducing conditions, signal over background)” value [1] is reported as 29.8 signal over background and the “% Residual Binding (signal in 10 mM DTT divided by signal without DTT, times 100)” value [2] is reported as 11%.

B3: CTLA-4 variant Var 1 (SEQ ID 5), monomeric form with serine at position 121, translated in vitro (receptor)
chain: B1 chain with I17T, W49Y, F61S, P62L, R81Q
modifications: 35S-labelled methionine
In the case of B3, the “Signal DTT- (RIA signal after non-reducing conditions, signal over background)” value [1] is reported as 2.6 signal over background and the “% Residual Binding (signal in 10 mM DTT divided by signal without DTT, times 100)” value [2] is reported as 55%.

Source: patent publication US20100322893A1 (MEDLMMUNE, published 2010)
